Assay results taken from article PMC9638933.

Tests used:
Kumin;POL = Kumin;POL (Mycobacterium …, UniProt P9WKD9;P9WNV3 1-259;1-287, |); assay: EMSA; supershift; EMSA: 50 mM Tris-HCl pH 8.0, 50 mM NaCl, 1 mM DTT, 5 mM MgCl2, 4% glycerol, 0.025 mg/ml BSA, 10 nM DNA, 30 C 20 min; FP: 10 mM Tris-HCl pH 8, 10 mM NaCl, 10% glycerol, 1 mM TCEP, 50 nM DNA, 30 C; ternary EMSA: 20 mM Tris-HCl pH 8.0, 5 mM MgCl2, 5% glycerol, 37 C; bridging: 20 mM Tris-HCl pH 7.5, 50 mM KCl, 5 mM EDTA, 1 mM DTT, 5% glycerol, 40 ug/ml BSA, room temperature; conditions: protein: recombinant;recombinant; tags: His (Ni-NTA purified; pMCSG7);His (Ni-NTA purified); chain copies: 2;1; label: 5' 6-FAM on strand 1; blunt
KuWT;LIG = KuWT;LIG (Mycobacterium …, UniProt P9WKD9;P9WNV3 1-273;454-759, |); assay: as above; conditions: protein: recombinant;recombinant; tags: His (Ni-NTA purified; pMCSG7);His (Ni-NTA purified); chain copies: 2;1; label: 5' 6-FAM on strand 1; blunt
Kucore;POL = Kucore;POL (Mycobacterium …, UniProt P9WKD9;P9WNV3 1-238;1-287, |); assay: as above; conditions: protein: recombinant;recombinant; tags: His (Ni-NTA purified; pMCSG7);His (Ni-NTA purified); chain copies: 2;1; label: 5' 6-FAM on strand 1; blunt
Kumin;LIG = Kumin;LIG (Mycobacterium …, UniProt P9WKD9;P9WNV3 1-259;454-759, |); assay: as above; conditions: protein: recombinant;recombinant; tags: His (Ni-NTA purified; pMCSG7);His (Ni-NTA purified); chain copies: 2;1; label: 5' 6-FAM on strand 1; blunt
Kucore;LIG = Kucore;LIG (Mycobacterium …, UniProt P9WKD9;P9WNV3 1-238;454-759, |); assay: as above; conditions: protein: recombinant;recombinant; tags: His (Ni-NTA purified; pMCSG7);His (Ni-NTA purified); chain copies: 2;1; label: 5' 6-FAM on strand 1; blunt
KuWT;POL = KuWT;POL (Mycobacterium …, UniProt P9WKD9;P9WNV3 1-273;1-287, |); assay: as above; conditions: protein: recombinant;recombinant; tags: His (Ni-NTA purified; pMCSG7);His (Ni-NTA purified); chain copies: 2;1; label: 5' 6-FAM on strand 1; blunt
Kucore;LigD = Kucore;LigD (Mycobacterium …, UniProt P9WKD9;P9WNV3 1-238;1-759, |); assay: EMSA; 10 uM Ku, 1 uM LigD; supershift; EMSA: 50 mM Tris-HCl pH 8.0, 50 mM NaCl, 1 mM DTT, 5 mM MgCl2, 4% glycerol, 0.025 mg/ml BSA, 10 nM DNA, 30 C 20 min; FP: 10 mM Tris-HCl pH 8, 10 mM NaCl, 10% glycerol, 1 mM TCEP, 50 nM DNA, 30 C; ternary EMSA: 20 mM Tris-HCl pH 8.0, 5 mM MgCl2, 5% glycerol, 37 C; bridging: 20 mM Tris-HCl pH 7.5, 50 mM KCl, 5 mM EDTA, 1 mM DTT, 5% glycerol, 40 ug/ml BSA, room temperature; conditions: protein: recombinant;recombinant; tags: His (Ni-NTA purified; pMCSG7);His (Ni-NTA purified; pMCSG7); chain copies: 2;1; label: 5' 6-FAM on strand 1; blunt

Measured: binding result

Chain of KuWT;POL (P9WNV3 1-287, one chain of several): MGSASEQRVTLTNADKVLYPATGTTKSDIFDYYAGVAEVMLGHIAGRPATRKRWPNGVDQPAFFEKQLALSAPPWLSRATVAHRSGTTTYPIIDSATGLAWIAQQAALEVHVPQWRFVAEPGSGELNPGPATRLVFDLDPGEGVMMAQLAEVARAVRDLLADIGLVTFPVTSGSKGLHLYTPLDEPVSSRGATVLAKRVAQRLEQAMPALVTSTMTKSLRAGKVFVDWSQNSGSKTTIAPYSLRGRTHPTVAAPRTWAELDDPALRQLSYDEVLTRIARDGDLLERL
Chain of Kumin;POL (P9WNV3 1-287, one chain of several): as above
Chain of Kucore;LIG (P9WNV3 454-759, one chain of several): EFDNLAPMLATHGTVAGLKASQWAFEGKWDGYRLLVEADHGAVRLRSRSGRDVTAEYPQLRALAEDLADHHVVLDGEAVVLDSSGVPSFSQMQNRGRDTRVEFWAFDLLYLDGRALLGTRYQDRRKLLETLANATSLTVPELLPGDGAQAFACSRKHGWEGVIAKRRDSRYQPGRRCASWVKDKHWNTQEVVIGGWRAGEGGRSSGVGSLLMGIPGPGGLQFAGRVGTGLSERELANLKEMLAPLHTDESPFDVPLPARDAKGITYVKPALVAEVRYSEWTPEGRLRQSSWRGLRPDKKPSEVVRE
Chain of KuWT;LIG (P9WKD9 whole entry, chain 1 of 2): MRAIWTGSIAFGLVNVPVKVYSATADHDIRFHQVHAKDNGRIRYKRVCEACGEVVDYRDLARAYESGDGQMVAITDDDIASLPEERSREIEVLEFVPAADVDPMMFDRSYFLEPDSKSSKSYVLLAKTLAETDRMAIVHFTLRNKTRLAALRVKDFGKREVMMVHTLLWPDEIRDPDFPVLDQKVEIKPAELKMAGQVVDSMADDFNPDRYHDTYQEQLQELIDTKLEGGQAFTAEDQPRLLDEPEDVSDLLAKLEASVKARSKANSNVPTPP
Chain of KuWT;LIG (P9WNV3 454-759, chain 2 of 2): as the sequence (P9WNV3 454-759, one chain of several) above
Chain of Kucore;LigD (P9WKD9 1-238, chain 1 of 2): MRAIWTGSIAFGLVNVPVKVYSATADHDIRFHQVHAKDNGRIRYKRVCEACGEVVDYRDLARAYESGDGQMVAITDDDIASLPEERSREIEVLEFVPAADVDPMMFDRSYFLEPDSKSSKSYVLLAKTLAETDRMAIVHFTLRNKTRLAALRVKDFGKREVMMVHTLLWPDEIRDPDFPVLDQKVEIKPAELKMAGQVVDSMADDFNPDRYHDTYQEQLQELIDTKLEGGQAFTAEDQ
Chain of Kucore;LigD (P9WNV3 whole entry, chain 2 of 2): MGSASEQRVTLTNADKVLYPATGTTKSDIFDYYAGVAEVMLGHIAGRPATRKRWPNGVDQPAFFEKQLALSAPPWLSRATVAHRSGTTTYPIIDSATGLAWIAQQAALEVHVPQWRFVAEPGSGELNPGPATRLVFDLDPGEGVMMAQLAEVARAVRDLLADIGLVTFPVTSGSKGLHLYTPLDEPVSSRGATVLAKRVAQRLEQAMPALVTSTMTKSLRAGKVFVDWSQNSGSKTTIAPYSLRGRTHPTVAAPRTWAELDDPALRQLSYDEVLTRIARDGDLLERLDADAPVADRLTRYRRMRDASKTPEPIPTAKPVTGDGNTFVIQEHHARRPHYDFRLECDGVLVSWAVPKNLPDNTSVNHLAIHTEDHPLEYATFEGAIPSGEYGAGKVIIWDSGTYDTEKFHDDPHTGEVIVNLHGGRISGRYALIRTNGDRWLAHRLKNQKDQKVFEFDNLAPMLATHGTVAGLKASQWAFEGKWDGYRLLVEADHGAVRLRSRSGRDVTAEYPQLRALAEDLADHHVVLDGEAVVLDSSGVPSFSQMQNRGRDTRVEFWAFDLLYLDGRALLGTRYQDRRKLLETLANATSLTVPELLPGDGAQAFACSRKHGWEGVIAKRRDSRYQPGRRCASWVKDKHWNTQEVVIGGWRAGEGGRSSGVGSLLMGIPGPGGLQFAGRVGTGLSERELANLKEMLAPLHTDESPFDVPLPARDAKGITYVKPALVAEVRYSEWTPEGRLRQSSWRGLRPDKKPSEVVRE
Chain of Kucore;POL (P9WKD9 1-238, chain 1 of 2): as the sequence (P9WKD9 1-238, chain 1 of 2) above
Chain of Kucore;POL (P9WNV3 1-287, chain 2 of 2): as the sequence (P9WNV3 1-287, one chain of several) above
Chain of Kumin;LIG (P9WKD9 1-259, chain 1 of 2): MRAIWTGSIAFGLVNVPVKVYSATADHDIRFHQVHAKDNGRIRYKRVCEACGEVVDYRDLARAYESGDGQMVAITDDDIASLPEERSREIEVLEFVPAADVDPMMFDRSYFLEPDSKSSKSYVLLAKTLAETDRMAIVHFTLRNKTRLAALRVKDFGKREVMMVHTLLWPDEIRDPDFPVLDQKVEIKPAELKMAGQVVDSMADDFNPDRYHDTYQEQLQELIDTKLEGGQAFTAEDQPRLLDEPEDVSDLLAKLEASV
Chain of Kumin;LIG (P9WNV3 454-759, chain 2 of 2): as the sequence (P9WNV3 454-759, one chain of several) above

B1: 40 bp dsDNA (dsDNA)
DNA 1: CAGGGTAAGTGTGGAGGTGTAGGGAAGGGAATGTTGTCTG
DNA 2: CAGACAACATTCCCTTCCCTACACCTCCACACTTACCCTG
binds: all assays above
